Measurements published in paper PMC2885444.

Columns and labels:
[1] = molecular target: CHD4 PHD2 finger, wild type (UniProt Q14839); experiment: other fluorescence titration + NMR titration
[2] = molecular target: CHD4 PHD2 finger, wild type (UniProt Q14839); experiment: other fluorescence titration
[3] = molecular target: CHD4 PHD2 finger C460W (UniProt Q14839); experiment: NMR titration
[4] = molecular target: CHD4 PHD2 finger E447A (UniProt Q14839); experiment: NMR titration

Substance	Kd [1] [µM]	Kd [2] [nM]	other results
histone H3 peptide in which the primary amino group of Ala1 was acetylated	400		
H3K9me3 peptide (12-mer histone tail peptide)		900	
H3K9ac peptide (20-mer)		600	
unmodified H3 peptide (12-mer histone tail peptide)			Kd [3]: 3.7 mM; Kd [4]: 900 µM

Further lines, with some results ahead:

Kd [1] [µM]	Kd [2] [nM]	Substance	other results
1000		H3K4me2 peptide (affinity measurements)	
300		H3K4me1 peptide (affinity measurements)	
